Square brackets hold non-standard residues; d marks the D form. Ends that are not written are not given here. pT = C[C@@H](OP(=O)(O)O)[C@H](N)C(=O)O; pS = N[C@@H](COP(=O)(O)O)C(=O)O
How the values were obtained:
[1] = molecular target: T1, Rattus norvegicus wild-type β-arrestin2 (Rattus norvegicus, UniProt P29067 1-410); test: ITC; site II (KD2)
[2] = molecular target: T1, Rattus norvegicus wild-type β-arrestin2; test: ITC; site I (KD1)

T1 sequence (P29067 whole entry): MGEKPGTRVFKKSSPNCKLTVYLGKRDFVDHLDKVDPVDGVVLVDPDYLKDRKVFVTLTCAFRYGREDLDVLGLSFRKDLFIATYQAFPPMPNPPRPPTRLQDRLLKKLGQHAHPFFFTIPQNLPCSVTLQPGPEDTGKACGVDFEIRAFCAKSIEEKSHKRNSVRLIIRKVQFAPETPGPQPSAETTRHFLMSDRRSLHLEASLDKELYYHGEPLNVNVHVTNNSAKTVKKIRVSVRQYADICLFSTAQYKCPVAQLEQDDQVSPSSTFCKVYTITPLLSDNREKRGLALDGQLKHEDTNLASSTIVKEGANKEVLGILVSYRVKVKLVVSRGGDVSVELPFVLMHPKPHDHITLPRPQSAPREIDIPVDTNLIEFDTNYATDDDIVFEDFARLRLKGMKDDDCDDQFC

B1: C7pp2, phosphopeptide from the carboxyl terminus of CXCR7 (residues 346-359) (peptide)
peptide: ASRV[pS]E[pT]EY[pS]ALEQ
A Kd [1] of 3320 nM and a Kd [2] of 79.9 nM were found for B1 in this work.

From PMC12331092 (2025)
